Source: patent publication US20240392023A1 (ABCLON, published 2024)
One block for each binder: values may come before it.

Columns and labels:
[1] = target: T1, CD30-His (Sino Biological, 10777-H08H) (UniProt P28908 19-379); test: ELISA, scFv-Fc titrated on plate coated with 1 µg/mL CD30-His
T1 construct: Bought protein; also called CD30-His protein; CD30 protein; not shown: His tag
T1 sequence (looked up): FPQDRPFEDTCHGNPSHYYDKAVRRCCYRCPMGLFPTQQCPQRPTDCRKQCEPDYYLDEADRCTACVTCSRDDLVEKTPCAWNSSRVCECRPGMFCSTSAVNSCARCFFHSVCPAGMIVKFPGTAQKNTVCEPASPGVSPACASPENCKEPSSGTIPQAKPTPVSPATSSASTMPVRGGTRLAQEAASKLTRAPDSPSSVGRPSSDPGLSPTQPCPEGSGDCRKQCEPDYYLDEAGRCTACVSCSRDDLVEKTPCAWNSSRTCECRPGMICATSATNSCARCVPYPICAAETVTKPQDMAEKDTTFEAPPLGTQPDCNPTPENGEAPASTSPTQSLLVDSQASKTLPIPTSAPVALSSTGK
Method: For ELISA, the eleven purified anti-CD30 scFv-Fc forms and the positive control HRS scFV-Fc were 1/3 diluted for 10 points starting from 10 μg/mL in a plate coated with 1 μg/mL CD30-His protein. After treatment with a secondary antibody (anti-hIgG-Fc-HRP (Invitrogen, H10007)), a color was developed with TMB. OD₄₅₀ values were read using an ELISA reader, and EC₅₀ values were measured by means of Graph prism (FIG. 1, Table 3).

[2] = target: T2, CD30 expressed on cells (CD30-293T, SUDHL1, HDLM-2) (UniProt P28908 19-595); test: cell-based or functional assay
T2 sequence (looked up): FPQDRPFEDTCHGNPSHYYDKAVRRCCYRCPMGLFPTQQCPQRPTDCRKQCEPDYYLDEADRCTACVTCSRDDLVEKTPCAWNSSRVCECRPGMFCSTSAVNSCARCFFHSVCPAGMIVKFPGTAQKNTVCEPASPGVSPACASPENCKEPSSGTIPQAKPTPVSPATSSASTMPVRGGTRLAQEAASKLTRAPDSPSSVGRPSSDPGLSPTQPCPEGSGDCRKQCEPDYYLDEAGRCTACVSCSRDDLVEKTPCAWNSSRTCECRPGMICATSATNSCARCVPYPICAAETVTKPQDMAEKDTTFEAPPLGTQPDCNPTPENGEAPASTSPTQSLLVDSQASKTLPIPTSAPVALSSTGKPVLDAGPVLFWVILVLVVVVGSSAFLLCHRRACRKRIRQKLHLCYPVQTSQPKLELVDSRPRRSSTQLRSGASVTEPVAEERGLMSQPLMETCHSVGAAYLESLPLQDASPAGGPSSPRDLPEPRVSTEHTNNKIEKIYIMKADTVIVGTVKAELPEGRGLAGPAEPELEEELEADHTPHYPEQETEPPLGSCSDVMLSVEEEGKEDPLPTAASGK

[3] = target: T2, CD30 expressed on cells (CD30-293T, …); test: cell-based or functional assay; remark: listed apart in the source
[4] = target: T2, CD30 expressed on cells (CD30-293T, …); test: cell-based or functional assay; remark: listed apart in the source

EC50 [1]: 0.026 µg/mL
B1: T1-141 anti-CD30 scFv-Fc (Fc fusion)
scFv: EVQLLESGGGLVQPGGSLRLSCAASGFTFSYYDMSWVRQAPGKGLEWVSGIYGSGSTYYADSVKGRFTISRDNSKNTLYLQMNSLRAEDTAVYYCARYSYYDSYSDYFDYWGQGTLVTVSSGGGGSGGGGSGGGGSQSVLTQPPSASGTPGQRVTISCSGSSSNIGSNYVYWYQQLPGTAPKLLIYRNNQRPSGVPDRFSGSKSGTSASLAISGLRSEDEADYYCAAYSYGYYVFGGGTKLTVLG
notes: scFv-Fc-conjugated form (Zb-Fc); also called Zb-Fc form; not shown: Fc of the scFv-Fc (Zb-Fc) form and its junction

EC50 [1]: 0.26 µg/mL
B2: T1-159 anti-CD30 scFv-Fc (Fc fusion)
scFv: EVQLLESGGGLVQPGGSLRLSCAASGFTFSSYGMSWVRQAPGKGLEWVSSIYYYSGGTYYADSVKGRFTISRDNSKNTLYLQMNSLRAEDTAVYYCARNDYRNNSDFDYWGQGTLVTVSSGGGGSGGGGSGGGGSQSVLTQPPSASGTPGQRVTISCSGSSSNIGSNYVYWYQQLPGTAPKLLIYRNNQRPSGVPDRFSGSKSGTSASLAISGLRSEDEADYYCAAYYPYYYVFGGGTKLTVLG
notes: scFv-Fc-conjugated form (Zb-Fc); also called Zb-Fc form; not shown: Fc of the scFv-Fc (Zb-Fc) form and any junction to it

B3: scFv CAR of anti CD30 antibody (T1-159), on CAR-T cells (other)
chain: EVQLLESGGGLVQPGGSLRLSCAASGFTFSSYGMSWVRQAPGKGLEWVSSIYYYSGGTYYADSVKGRFTISRDNSKNTLYLQMNSLRAEDTAVYYCARNDYRNNSDFDYWGQGTLVTVSSGGGGSGGGGSGGGGSQSVLTQPPSASGTPGQRVTISCSGSSSNIGSNYVYWYQQLPGTAPKLLIYRNNQRPSGVPDRFSGSKSGTSASLAISGLRSEDEADYYCAAYYPYYYVFGGGTKLTVLGGQAGQTTTPAPRPPTPAPTIASQPLSLRPEACRPAAGGAVHTRGLDFACDIYIWAPLAGTCGVLLLSLVITLYCKRGRKKLLYIFKQPFMRPVQTTQEEDGCSCRFPEEEEGGCELRVKFSRSADAPAYQQGQNQLYNELNLGRREEYDVLDKRRGRDPEMGGKPRRKNPQEGLYNELQKDKMAEAYSEIGMKGERRRGKGHDGLYQGLSTATKDTYDALHMQALPPR
tumor death rate on HDLM-2 cells, ratio of CAR-T to the target 0.25 [2]: ≥ 50% | Cytotoxicity (%) against CD30-expressing cell (SUDHL1), CAR-T/Target 0.11 [3]: 24% | Cytotoxicity (%) against CD30-expressing cell (SUDHL1), CAR-T/Target 0.33 [3]: 58% | Cytotoxicity (%) against CD30-expressing cell (SUDHL1), CAR-T/Target 1 [3]: 88% | Cytotoxicity (%) against CD30-expressing cell (CD30-293T), CAR-T/Target 0.11 [4]: -4% | Cytotoxicity (%) against CD30-expressing cell (CD30-293T), CAR-T/Target 0.33 [4]: 60% | Cytotoxicity (%) against CD30-expressing cell (CD30-293T), CAR-T/Target 1 [4]: 72%

EC50 [1]: 0.038 µg/mL
B4: T2-2 anti-CD30 scFv-Fc (Fc fusion)
chain: EVQLLESGGGLVQPGGSLRLSCAASGFTFSSYHMSWVRQAPGKGLEWVSGIGYGHGGTYYADSVKGRFTISRDNSKNTLYLQMNSLRAEDTAVYYCARYDYDYSFDYWGQGTLVTVSSGGGGSGGGGSGGGGSQSVLTQPPSASGTPGQRVTISCSGSSSNIGSNYVYWYQQLPGTAPKLLIYRNNQRPSGVPDRFSGSKSGTSASLAISGLRSEDEADYYCAVSSPYSYVFGGGTKLTVLG
notes: scFv-Fc-conjugated form (Zb-Fc); also called Zb-Fc form; not shown: Fc of the scFv-Fc form (Zb-Fc)
